Assay [1] concerns the target T1, human (Homo sapiens) ROR2, full length, on cells (human, UniProt Q01974 34-943).
T1 construct: also called human ROR2; CHO-ROR2
In words: flow cytometry on CHO cells expressing human ROR2. The method, then: Cells (1×10⁵ cells/well) were incubated in polystyrene 96-well round-bottom plates (Greiner bio-one, cat. no. 650180) with serial dilutions of antibodies (ranging from 0.01 to 10 μg/mL in 3- or 4-fold dilution steps) in 100 μL PBS/0.1% BSA/0.02% azide (FACS buffer) at 4° C. for 30-60 min. Experiments were performed in technical duplicate. After washing twice in FACS buffer, cells were incubated in 50 μL secondary antibody (R-Phycoerythrin [PE]-conjugated goat-anti-human IgG F(ab′)₂; diluted 1:200 in FACS buffer; Jackson ImmunoResearch Laboratories, Inc., West Grove, PA, cat. no. 109-116-098) at 4° C. for 30 min. Cells were washed twice in FACS buffer, re-suspended in 30 μL FACS buffer containing Topro-3 (1:10,000 dilution) and analyzed on an iQue Screener (Intellicyt Corporation, USA). Binding curves were analyzed using non-linear regression (sigmoidal dose-response with variable slope) using GraphPad Prism V7.02 software (GraphPad Software, San Diego, CA, USA).
For orientation: A flow cytometer gives signals particle by particle.

For assay [2], the target named is T2, cynomolgus monkey ROR2 in which threonine at position 322 is replaced by methionine (ROR2mf-T322M) (cynomolgus monkey (Macaca fascicularis), UniProt Q01974 34-943 (human entry)).
T2 construct: also called RORmf-T322M
Put plainly: flow cytometry on CHO cells expressing ROR2mf-T322M.

Assay [3] addresses T3, cynomolgus monkey (Macaca fascicularis) ROR2, full length, on CHO cells (cynomolgus monkey (Macaca fascicularis), UniProt Q01974 34-943 (human entry)).
T3 construct: also called ROR2mf; CHO-mfROR2
T3 chain: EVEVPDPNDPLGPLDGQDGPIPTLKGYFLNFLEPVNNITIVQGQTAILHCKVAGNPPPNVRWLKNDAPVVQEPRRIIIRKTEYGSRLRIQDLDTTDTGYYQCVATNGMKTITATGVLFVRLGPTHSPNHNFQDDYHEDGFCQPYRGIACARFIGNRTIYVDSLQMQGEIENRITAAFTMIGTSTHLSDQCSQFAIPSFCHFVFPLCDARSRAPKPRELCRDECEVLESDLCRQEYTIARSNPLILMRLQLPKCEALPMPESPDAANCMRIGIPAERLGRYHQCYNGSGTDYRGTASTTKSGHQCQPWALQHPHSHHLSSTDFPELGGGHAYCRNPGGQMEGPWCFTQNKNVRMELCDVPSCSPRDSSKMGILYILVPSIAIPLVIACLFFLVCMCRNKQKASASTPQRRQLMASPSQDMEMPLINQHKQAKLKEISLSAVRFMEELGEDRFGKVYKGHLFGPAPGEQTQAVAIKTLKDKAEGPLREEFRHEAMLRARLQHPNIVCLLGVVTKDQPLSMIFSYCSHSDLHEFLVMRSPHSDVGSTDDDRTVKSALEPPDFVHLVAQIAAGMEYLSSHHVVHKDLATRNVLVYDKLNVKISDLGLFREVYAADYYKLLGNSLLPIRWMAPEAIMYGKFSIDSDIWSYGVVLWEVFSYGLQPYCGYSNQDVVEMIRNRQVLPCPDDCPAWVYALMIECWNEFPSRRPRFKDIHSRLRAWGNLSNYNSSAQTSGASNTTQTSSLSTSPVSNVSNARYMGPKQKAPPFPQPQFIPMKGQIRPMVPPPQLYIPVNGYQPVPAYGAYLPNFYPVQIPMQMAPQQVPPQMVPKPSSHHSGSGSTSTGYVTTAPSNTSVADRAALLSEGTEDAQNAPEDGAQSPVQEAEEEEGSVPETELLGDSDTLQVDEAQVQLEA
Put plainly: flow cytometry on CHO cells expressing cynomolgus monkey ROR2. The protocol:
Next, binding of bispecific CD3×ROR2 antibodies and monospecific ROR2 antibodies to CHO cells expressing human or cynomolgus monkey ROR2 was determined, using 5×10⁴ transfected cells/well and an antibody concentration range from 0.01-10 μg/mL.

Assay [4] concerns the target T1, human (Homo sapiens) ROR2, full length, …. Put plainly: flow cytometry on ROR2-expressing tumor cell lines.

T1 sequence (Q01974 34-943 limits assumed): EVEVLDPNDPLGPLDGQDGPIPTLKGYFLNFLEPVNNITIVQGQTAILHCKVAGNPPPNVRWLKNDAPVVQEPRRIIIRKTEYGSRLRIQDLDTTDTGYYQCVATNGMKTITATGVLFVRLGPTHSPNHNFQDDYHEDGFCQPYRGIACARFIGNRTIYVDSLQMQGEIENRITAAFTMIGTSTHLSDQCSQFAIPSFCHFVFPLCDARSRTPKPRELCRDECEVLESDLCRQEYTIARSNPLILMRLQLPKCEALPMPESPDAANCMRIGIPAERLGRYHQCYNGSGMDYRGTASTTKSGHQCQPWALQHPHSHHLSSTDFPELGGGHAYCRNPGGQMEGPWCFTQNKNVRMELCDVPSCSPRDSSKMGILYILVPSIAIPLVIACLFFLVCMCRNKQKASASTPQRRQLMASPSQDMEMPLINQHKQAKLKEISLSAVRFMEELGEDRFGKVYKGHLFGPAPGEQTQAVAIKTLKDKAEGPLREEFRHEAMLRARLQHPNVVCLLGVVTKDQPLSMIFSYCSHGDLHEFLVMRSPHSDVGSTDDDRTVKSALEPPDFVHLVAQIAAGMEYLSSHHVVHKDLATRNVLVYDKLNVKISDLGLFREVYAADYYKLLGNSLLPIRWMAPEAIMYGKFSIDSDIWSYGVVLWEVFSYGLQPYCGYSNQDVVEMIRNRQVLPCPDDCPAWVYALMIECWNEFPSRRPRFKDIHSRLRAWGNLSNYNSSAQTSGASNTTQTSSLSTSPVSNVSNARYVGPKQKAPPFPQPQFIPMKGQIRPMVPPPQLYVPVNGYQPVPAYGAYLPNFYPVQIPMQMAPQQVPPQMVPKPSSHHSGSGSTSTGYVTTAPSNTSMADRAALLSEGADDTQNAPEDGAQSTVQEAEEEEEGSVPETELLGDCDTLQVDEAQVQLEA

B1: bsIgG1-huCD3-FEAL×ROR2-A-HC4LC3-FEAR (bispecific antibody)
heavy 1: not shown
light 1: not shown
heavy 2: EVQLLESGGGLVQPGGSLRLSCTVSGFSLSSYSMSWVRQAPGKGLEWIGVIYVNSKTWYANWAKGRFTISKDNSKNTVYLQMNSLRAEDTATYYCARGDAGYTTNSWLWGQGTLVTVSSASTKGPSVFPLAPSSKSTSGGTAALGCLVKDYFPEPVTVSWNSGALTSGVHTFPAVLQSSGLYSLSSVVTVPSSSLGTQTYICNVNHKPSNTKVDKRVEPKSCDKTHTCPPCPAPEFEGGPSVFLFPPKPKDTLMISRTPEVTCVVVAVSHEDPEVKFNWYVDGVEVHNAKTKPREEQYNSTYRVVSVLTVLHQDWLNGKEYKCKVSNKALPAPIEKTISKAKGQPREPQVYTLPPSREEMTKNQVSLTCLVKGFYPSDIAVEWESNGQPENNYKTTPPVLDSDGSFFLYSRLTVDKSRWQQGNVFSCSVMHEALHNHYTQKSLSLSPGK
light 2: AFELTQSPSSLSASVGDRVTITCQASESIDNYLSWYQQKPGKAPKLLIYQAFKLASGVPSRFRGSGSGTDFTLTISSLQPEDFATYYCQSYSGISTTAFGGGTKVEIKRTVAAPSVFIFPPSDEQLKSGTASVVCLLNNFYPREAKVQWKVDNALQSGNSQESVTEQDSKDSTYSLSSTLTLSKADYEKHKVYACEVTHQGLSSPVTKSFNRGEC
For B1, the binding result in assay [1], in assay [2] and in assay [3] was “binds” in each case.

B2: bsIgG1-huCD3-H101G-FEAL×ROR2-A-HC4LC3-FEAR (bispecific antibody)
heavy 1: not shown
light 1: not shown
heavy 2: EVQLLESGGGLVQPGGSLRLSCTVSGFSLSSYSMSWVRQAPGKGLEWIGVIYVNSKTWYANWAKGRFTISKDNSKNTVYLQMNSLRAEDTATYYCARGDAGYTTNSWLWGQGTLVTVSSASTKGPSVFPLAPSSKSTSGGTAALGCLVKDYFPEPVTVSWNSGALTSGVHTFPAVLQSSGLYSLSSVVTVPSSSLGTQTYICNVNHKPSNTKVDKRVEPKSCDKTHTCPPCPAPEFEGGPSVFLFPPKPKDTLMISRTPEVTCVVVAVSHEDPEVKFNWYVDGVEVHNAKTKPREEQYNSTYRVVSVLTVLHQDWLNGKEYKCKVSNKALPAPIEKTISKAKGQPREPQVYTLPPSREEMTKNQVSLTCLVKGFYPSDIAVEWESNGQPENNYKTTPPVLDSDGSFFLYSRLTVDKSRWQQGNVFSCSVMHEALHNHYTQKSLSLSPGK
light 2: AFELTQSPSSLSASVGDRVTITCQASESIDNYLSWYQQKPGKAPKLLIYQAFKLASGVPSRFRGSGSGTDFTLTISSLQPEDFATYYCQSYSGISTTAFGGGTKVEIKRTVAAPSVFIFPPSDEQLKSGTASVVCLLNNFYPREAKVQWKVDNALQSGNSQESVTEQDSKDSTYSLSSTLTLSKADYEKHKVYACEVTHQGLSSPVTKSFNRGEC
For the molecule B2, the binding result in assay [1] and in assay [2] was “binds” throughout.

B3: bsIgG1-huCD3-H101G-FEAL×b12-FEAR (bispecific antibody)
heavy 1: not shown
light: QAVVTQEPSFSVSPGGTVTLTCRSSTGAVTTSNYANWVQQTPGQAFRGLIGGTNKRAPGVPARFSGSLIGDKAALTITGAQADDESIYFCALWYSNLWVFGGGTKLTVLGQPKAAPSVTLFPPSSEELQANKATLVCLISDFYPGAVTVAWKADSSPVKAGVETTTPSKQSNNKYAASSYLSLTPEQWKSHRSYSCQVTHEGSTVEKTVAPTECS
heavy 2: QVQLVQSGAEVKKPGASVKVSCQASGYRFSNFVIHWVRQAPGQRFEWMGWINPYNGNKEFSAKFQDRVTFTADTSANTAYMELRSLRSADTAVYYCARVGPYSWDDSPQDNYYMDVWGKGTTVIVSSASTKGPSVFPLAPSSKSTSGGTAALGCLVKDYFPEPVTVSWNSGALTSGVHTFPAVLQSSGLYSLSSVVTVPSSSLGTQTYICNVNHKPSNTKVDKRVEPKSCDKTHTCPPCPAPEFEGGPSVFLFPPKPKDTLMISRTPEVTCVVVAVSHEDPEVKFNWYVDGVEVHNAKTKPREEQYNSTYRVVSVLTVLHQDWLNGKEYKCKVSNKALPAPIEKTISKAKGQPREPQVYTLPPSREEMTKNQVSLTCLVKGFYPSDIAVEWESNGQPENNYKTTPPVLDSDGSFFLYSRLTVDKSRWQQGNVFSCSVMHEALHNHYTQKSLSLSPGK
VL: EIVLTQSPGTLSLSPGERATFSCRSSHSIRSRRVAWYQHKPGQAPRLVIHGVSNRASGISDRFSGSGSGTDFTLTITRVEPEDFALYYCQVYGASSYTFGQGTKLERK
notes: Control bispecific; also called bsIgG1-huCD3-H1010G-FEAL×b12-FEAR
Consider B3, for which the binding result in assay [4] is given as “no binding (tested: 0.014-30 µg/mL)”.

(Values after patent publication US20230365714A1 (published 2023).)
